Measured values published in US20220106580A1.

Experiments:
asialofetuin (ASF) [1] = target: asialofetuin (ASF) (UniProt P12763); assay: saturation binding of GFP fluorescence to ASF adsorbed onto plastic, [GFP]=0-10 µM
asialofetuin (ASF) [2] = target: asialofetuin (ASF) (UniProt P12763); assay: cell-based or functional assay

Chain of UniProt P12763 (P12763 19-359 limits assumed): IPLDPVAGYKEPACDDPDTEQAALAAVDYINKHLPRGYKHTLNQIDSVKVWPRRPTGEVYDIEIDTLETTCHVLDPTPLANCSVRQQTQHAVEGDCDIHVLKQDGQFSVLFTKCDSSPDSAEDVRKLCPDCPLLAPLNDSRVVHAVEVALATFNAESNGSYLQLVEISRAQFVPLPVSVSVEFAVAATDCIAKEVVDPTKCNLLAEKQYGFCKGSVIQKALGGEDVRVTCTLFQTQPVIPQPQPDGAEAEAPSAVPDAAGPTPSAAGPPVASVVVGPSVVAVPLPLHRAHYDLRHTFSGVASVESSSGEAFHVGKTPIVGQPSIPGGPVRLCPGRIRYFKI

Row | concentration approaching saturation (asialofetuin (ASF) [1]) | WT-G3 concentration at which insoluble aggregates with 7 uM ASF are detected at 420 nm (asialofetuin (ASF) [2]) | absorbance of 10 uM WT-G3 plus 7 uM ASF in PBS (asialofetuin (ASF) [2]) | Substance
1 | 2 µM | – | – | GFP-TT-G3 (superfolder green fluorescent protein - TriggerTrimer coiled-coil - human galectin-3; trimeric nanoassembly)
2 | – | > 2.5 µM | 0.4 absorbance | wild-type galectin-3 (WT-G3) (from UniProt P17931 2-250)
